# B1: Phosphatidylinositol 4,5-bisphosphate 3-kinase catalytic subunit gamma isoform (Homo sapiens), P48736 (parent)
# chain: MELENYKQPVVLREDNCRRRRRMKPRSAAASLSSMELIPIEFVLPTSQRKCKSPETALLHVAGHGNVEQMKAQVWLRALETSVAADFYHRLGPHHFLLLYQKKGQWYEIYDKYQVVQTLDCLRYWKATHRSPGQIHLVQRHPPSEESQAFQRQLTALIGYDVTDVSNVHDDELEFTRRGLVTPRMAEVASRDPKLYAMHPWVTSKPLPEYLWKKIANNCIFIVIHRSTTSQTIKVSPDDTPGAILQSFFTKMAKKKSLMDIPESQSEQDFVLRVCGRDEYLVGETPIKNFQWVRHCLKNGEEIHVVLDTPPDPALDEVRKEEWPLVDDCTGVTGYHEQLTIHGKDHESVFTVSLWDCDRKFRVKIRGIDIPVLPRNTDLTVFVEANIQHGQQVLCQRRTSPKPFTEEVLWNVWLEFSIKIKDLPKGALLNLQIYCGKAPALSSKASAESPSSESKGKVQLLYYVNLLLIDHRFLLRRGEYVLHMWQISGKGEDQGSFNADKLTSATNPDKENSMSISILLDNYCHPIALPKHQPTPDPEGDRVRAEMPNQLRKQLEAIIATDPLNPLTAEDKELLWHFRYESLKHPKAYPKLFSSVKWGQQEIVAKTYQLLARREVWDQSALDVGLTMQLLDCNFSDENVRAIAVQKLESLEDDDVLHYLLQLVQAVKFEPYHDSALARFLLKRGLRNKRIGHFLFWFLRSEIAQSRHYQQRFAVILEAYLRGCGTAMLHDFTQQVQVIEMLQKVTLDIKSLSAEKYDVSSQVISQLKQKLENLQNSQLPESFRVPYDPGLKAGALAIEKCKVMASKKKPLWLEFKCADPTALSNETIGIIFKHGDDLRQDMLILQILRIMESIWETESLDLCLLPYGCISTGDKIGMIEIVKDATTIAKIQQSTVGNTGAFKDEVLNHWLKEKSPTEEKFQAAVERFVYSCAGYCVATFVLGIGDRHNDNIMITETGNLFHIDFGHILGNYKSFLGINKERVPFVLTPDFLFVMGTSGKKTSPHFQKFQDICVKAYLALRHHTNLLIILFSMMLMTGMPQLTSKEDIEYIRDALTVGKNEEDAKKYFLDQIEVCRDKGWTVQFNWFLHLVLGIKQGEKHSA
# partner: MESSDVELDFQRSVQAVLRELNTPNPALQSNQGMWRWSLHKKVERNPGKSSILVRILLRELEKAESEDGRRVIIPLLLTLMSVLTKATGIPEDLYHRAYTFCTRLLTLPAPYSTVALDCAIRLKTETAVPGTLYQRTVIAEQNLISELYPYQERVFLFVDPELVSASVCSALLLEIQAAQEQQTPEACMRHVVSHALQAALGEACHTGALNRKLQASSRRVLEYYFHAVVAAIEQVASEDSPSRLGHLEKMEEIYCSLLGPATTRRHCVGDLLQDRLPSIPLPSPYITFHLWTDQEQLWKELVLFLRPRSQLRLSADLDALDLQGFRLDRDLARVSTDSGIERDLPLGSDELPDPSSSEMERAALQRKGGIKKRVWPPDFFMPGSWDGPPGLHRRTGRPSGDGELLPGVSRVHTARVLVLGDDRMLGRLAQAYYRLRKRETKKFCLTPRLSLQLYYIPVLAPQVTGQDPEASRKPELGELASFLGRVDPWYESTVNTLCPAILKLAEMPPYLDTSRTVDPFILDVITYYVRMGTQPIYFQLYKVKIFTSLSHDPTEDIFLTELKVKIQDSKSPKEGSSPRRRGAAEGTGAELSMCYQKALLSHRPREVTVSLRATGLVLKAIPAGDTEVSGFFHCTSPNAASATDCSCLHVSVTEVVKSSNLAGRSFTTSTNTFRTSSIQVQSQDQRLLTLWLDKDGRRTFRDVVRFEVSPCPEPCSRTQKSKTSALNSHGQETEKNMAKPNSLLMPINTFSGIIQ
# Variants of: B1
# Settings: with pi3r6_mouse Pik3r6, Q3U6Q4
row,Variant,effect of a mutation on the interaction
1,S582D,decreasing interaction strength
2,S582E,decreasing interaction strength
